Usually stoichiometry N stands for a count of units in the complex or per binding partner.

Read-outs that look alike come from different tables or passages of the source.

Common to all, as to test: ITC; aliquots of HasBCTD variants (80-200 μM) injected into the cell containing HasR wild type or mutant proteins (4-15 μM); 25°C; 20 mM sodium phosphate, pH 7, 0.08% Zwittergent 3-14; fit to a model with one set of sites
In general terms: ITC needs no label: the signal is the heat of the interaction.

The target in assay [1] is HasR wild type (outer membrane heme transporter, TonB-dependent transporter) (Serratia marcescens).
Assay [2] concerns the target HasR_(ΔNter) (HasR without the signaling domain, linker and TonB-box) (Serratia marcescens) (UniProt Q79AD2).
For assay [3], the target named is HasR_(ΔNterL1) (HasR_(ΔNter) with loop L1 P232GKE replaced by ATSA) (Serratia marcescens) (UniProt Q79AD2).
Assay [4] concerns the target HasR_(ΔNterL10short) (HasR_(ΔNter) with loop L10 R774AFDRKLD replaced by ATSA) (Serratia marcescens) (UniProt Q79AD2).
The target of assay [5] is HasR_(ΔNter) (HasR without the signaling domain, linker and TonB-box) (Serratia marcescens) (UniProt Q79AD2). This is another data set of the same source.
Assay [6] addresses HasR_(ΔNterL1) (HasR_(ΔNter) with loop L1 P232GKE replaced by ATSA) (Serratia marcescens) (UniProt Q79AD2). This is another data set of the same source.

For “HasBCTD (periplasmic C-terminal domain of the TonB-like protein HasB), wild type (domain or fragment)”, the Ka is 7.5e+07 M⁻¹ in assay [1], 2.3e+06 M⁻¹ in assay [2], 3.03e+06 M⁻¹ in assay [3] and 1.45e+08 M⁻¹ in assay [4]. In addition, the dH in assay [1] is -79.9 kJ/mol; in assay [2], -46.4 kJ/mol; in assay [3], -38.5 kJ/mol; in assay [4], -12.1 kJ/mol; in assay [5], 46.4 kJ/mol; in assay [6], 38.5 kJ/mol. The stoichiometry N amounted to 1.03 in assay [1], 1.1 in assay [2], 1.1 in assay [3] and 0.98 in assay [4].

(Values after article PMC11633176.)
